This note sets out measurements from publication PMC5032119.

This assay addresses Ku70-HisTag (mouse) (UniProt P23475). The assay can be described thus: fluorescence polarisation; FIDA-PO on an MF20 (Olympus) single molecule fluorescence spectroscopy; 5 nM fluorescent Ku70-HisTag in solution, 500 nM GST-HttExon1-110Q added; 40 ul per well, 384-well glass-bottom plate, PBS with 0.01% Tween 20 and 1% DMSO, room temperature. (Polarisation of emitted light reports the rotation of a fluorescent probe.)
UniProt P23475, sequence (P23475 whole entry): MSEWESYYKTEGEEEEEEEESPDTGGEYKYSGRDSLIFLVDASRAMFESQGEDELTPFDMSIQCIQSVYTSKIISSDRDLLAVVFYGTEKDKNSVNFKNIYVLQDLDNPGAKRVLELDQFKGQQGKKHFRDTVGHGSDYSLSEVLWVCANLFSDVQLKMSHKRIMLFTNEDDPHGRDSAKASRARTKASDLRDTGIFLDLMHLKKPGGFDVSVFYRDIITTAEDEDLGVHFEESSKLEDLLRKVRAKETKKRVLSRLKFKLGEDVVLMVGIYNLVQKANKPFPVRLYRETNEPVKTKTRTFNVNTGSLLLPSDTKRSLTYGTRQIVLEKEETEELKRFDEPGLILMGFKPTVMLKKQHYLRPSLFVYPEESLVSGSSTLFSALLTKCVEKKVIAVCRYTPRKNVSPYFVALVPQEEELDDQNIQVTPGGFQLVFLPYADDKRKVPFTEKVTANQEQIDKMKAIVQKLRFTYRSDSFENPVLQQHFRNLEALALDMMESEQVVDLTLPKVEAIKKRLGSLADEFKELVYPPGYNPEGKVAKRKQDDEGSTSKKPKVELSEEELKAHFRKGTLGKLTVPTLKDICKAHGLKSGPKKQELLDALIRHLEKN

GST-HttExon1-110Q, sequence (P42858 whole entry, change not shown): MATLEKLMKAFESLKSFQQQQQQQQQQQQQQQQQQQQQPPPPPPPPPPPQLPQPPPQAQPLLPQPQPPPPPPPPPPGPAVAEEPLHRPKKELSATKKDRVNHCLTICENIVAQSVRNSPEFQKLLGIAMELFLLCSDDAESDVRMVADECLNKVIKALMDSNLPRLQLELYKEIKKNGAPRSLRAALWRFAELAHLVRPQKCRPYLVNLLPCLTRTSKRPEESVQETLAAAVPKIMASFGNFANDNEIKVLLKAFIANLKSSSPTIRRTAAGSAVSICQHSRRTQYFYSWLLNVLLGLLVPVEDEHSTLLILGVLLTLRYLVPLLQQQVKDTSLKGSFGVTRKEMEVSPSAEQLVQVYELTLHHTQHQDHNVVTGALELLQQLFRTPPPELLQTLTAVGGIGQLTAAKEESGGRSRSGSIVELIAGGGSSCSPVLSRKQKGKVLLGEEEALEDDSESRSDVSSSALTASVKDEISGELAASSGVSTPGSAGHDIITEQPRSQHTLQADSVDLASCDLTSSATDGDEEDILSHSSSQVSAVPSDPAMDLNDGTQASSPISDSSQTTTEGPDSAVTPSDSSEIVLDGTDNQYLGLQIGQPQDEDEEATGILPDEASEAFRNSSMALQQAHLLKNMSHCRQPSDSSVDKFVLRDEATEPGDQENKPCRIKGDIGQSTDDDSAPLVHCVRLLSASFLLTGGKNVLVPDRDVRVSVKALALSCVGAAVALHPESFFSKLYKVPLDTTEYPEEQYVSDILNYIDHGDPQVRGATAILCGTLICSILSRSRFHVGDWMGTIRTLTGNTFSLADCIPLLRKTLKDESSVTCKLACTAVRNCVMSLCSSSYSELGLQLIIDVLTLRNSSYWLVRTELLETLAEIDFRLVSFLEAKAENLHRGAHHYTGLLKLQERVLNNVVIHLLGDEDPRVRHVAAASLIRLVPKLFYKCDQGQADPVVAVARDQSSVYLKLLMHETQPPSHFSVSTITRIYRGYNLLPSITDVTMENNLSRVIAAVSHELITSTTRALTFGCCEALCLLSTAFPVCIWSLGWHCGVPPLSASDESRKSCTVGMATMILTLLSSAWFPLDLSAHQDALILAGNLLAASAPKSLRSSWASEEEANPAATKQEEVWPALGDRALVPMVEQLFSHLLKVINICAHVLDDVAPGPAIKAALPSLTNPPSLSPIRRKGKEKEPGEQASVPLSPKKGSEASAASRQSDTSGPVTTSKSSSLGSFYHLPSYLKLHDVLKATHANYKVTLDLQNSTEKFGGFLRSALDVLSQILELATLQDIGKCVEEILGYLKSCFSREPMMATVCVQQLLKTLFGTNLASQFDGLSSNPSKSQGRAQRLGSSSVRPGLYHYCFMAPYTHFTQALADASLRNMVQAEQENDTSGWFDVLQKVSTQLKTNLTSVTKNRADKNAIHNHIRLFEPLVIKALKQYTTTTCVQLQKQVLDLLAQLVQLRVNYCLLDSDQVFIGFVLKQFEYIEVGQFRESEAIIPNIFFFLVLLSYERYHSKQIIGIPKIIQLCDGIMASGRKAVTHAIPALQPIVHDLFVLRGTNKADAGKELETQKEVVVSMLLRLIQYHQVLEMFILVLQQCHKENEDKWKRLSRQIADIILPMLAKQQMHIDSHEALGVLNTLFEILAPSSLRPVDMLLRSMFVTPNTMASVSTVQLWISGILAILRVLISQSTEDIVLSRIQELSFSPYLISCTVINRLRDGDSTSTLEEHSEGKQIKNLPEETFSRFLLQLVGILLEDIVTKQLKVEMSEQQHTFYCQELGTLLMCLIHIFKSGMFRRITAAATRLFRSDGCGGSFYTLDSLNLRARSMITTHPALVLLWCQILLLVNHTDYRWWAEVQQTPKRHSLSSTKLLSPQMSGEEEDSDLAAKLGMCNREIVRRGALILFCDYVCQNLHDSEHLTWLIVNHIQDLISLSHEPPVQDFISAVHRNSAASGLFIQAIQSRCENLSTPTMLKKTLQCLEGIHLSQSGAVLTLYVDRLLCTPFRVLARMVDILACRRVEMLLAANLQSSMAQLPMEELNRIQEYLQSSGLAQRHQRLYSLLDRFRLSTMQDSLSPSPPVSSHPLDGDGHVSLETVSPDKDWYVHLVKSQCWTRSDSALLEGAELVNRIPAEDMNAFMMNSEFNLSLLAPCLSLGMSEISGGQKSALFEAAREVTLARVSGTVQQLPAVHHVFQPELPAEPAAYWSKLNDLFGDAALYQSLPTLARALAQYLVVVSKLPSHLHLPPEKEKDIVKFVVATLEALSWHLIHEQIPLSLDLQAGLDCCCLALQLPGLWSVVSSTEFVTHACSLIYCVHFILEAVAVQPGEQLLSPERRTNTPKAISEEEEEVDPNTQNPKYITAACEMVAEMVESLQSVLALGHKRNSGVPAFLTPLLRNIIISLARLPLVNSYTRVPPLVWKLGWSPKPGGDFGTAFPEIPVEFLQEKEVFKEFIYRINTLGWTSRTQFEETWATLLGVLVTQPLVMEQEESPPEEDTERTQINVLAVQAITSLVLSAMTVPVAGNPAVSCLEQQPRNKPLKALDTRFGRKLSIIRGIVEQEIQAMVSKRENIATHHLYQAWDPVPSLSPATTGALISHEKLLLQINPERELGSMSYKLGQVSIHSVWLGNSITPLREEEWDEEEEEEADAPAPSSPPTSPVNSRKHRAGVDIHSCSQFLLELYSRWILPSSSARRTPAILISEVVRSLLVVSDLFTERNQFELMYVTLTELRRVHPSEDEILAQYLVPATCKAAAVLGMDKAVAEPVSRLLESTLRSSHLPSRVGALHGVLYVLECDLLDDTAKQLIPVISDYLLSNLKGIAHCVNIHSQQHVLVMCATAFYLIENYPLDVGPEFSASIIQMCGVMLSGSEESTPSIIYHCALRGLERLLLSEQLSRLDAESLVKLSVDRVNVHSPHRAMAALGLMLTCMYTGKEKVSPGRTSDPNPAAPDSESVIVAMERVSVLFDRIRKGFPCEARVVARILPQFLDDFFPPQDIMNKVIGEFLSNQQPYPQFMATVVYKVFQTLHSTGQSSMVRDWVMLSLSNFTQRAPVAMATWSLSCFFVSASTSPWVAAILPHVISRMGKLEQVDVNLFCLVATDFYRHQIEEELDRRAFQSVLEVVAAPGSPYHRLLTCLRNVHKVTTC

GST-HttExon1-110Q (domain or fragment) yielded a fluorescence polarization score of 140.
